{
  "source": "patent US7846202B2",
  "about": "“Coated implantable medical device” (Cook Incorporated, priority 1995, dated 2010)",
  "key": {"[1]": {"assay": "In-vitro flow system perfusion of antibody-loaded stents (antibody remaining on stent)", "assay_type": "physicochemical", "settings": "10 ml/min, 1% BSA in PBS, after approximately 10 days perfusion", "method": "In one example, device 10 is a stainless steel GR II™ stent in which the stainless steel base material 14 of structure 12 is coated with a polymer and, in particular, parylene. This adsorbent polymer layer 16 of parylene is approximately 230,000 Å thick. Bioactive material layer 18 of the antiplatelet GP IIb/IIIa antibody (AZ1) was passively loaded on adsorbent polymer layer 16. The polymer coated stainless steel stents were immersed for approximately 24 hours in a buffered aqueous solution of AZ1 antibody (1 mg/ml, pH=7.2) at 37° C. AZ1 is a monoclonal anti-rabbit platelet glycoprotein (GP) IIb/IIIa antibody.\nIn another example, c7E3 Fab as bioactive material layer 18 is attached to polymer coating layer 16. Bioactive material c7E3 Fab is a chimeric monoclonal antibody that acts upon the […] integrin on platelets to inhibit their aggregation. This antibody or receptor blocker may be used in humans intravenously to prevent thrombosis during coronary angioplasty. This receptor blocker is also known as ReoPro™ available from Eli Lilly, Indianapolis, Ind. Bioactive material layer 18 of the antiplatelet GP IIb/IIIa antibody (c7E3 Fab) was passively loaded on adsorbent polymer layer 16. […]"}, "[2]": {"assay": "In vitro release rate of bioactive material from beneath porous parylene layer", "assay_type": "physicochemical", "settings": "dexamethasone layer over heparin layer, compared with the material alone", "method": "When the at least one layer 18 of bioactive material contains a relatively soluble material such as heparin, the at least one layer 18 preferably contains a total of from about 0.1 to about 4 mg of bioactive material per cm^2 of the gross surface area of the structure 12. This provides a release rate for the heparin (measured in vitro) which is desirably in the range of 0.1 to 0.5 mg/cm^2 per day, and preferably about 0.25 mg/cm^2 per day, under typical blood flows through vascular stents. It should be noted that the solubility of dexamethasone may be adjusted as desired, with or without the inclusion of heparin, by mixing it with one or more of its relatively more soluble derivatives, such as dexamethasone sodium phosphate.\nFor example, when the structure 12 of the device 10 is configured as a vascular stent, it is advantageous for the at least one layer 18 to contain relatively soluble heparin, and the second layer 22 to contain relatively less soluble dexamethasone. […] More particularly, when dexamethasone is disposed by itself beneath a porous parylene layer 20 dimensioned as disclosed above, its release rate is negligible; an adequate release rate is obtained only when the thickness of the porous layer 20 is reduced by a factor of ten or more. […]"}},
  "data": [
    {"substance": "c7E3 Fab: chimeric monoclonal antibody that acts upon the […] integrin on platelets to inhibit their aggregation", "values": [
      {"measurement": "fraction of loaded antibody remaining on the stent", "setting": "[1]", "result": "approximately half"}
    ]},
    {"substance": "heparin", "values": [
      {"measurement": "change of release rate in heparin/dexamethasone two-layer device", "setting": "[2]", "result": "lowered"}
    ]}
  ]
}
